Measurements from paper PMC4117760.

Experiments:
[1] = tested on: MBP-CYV VP3 (Culex Y virus (CYV)); assay: EMSA
[2] = biological target: MBP-DXV VP3 (Drosophila X virus (DXV)) (UniProt Q96724); assay: EMSA
UniProt Q96724, sequence (Q96724 whole entry): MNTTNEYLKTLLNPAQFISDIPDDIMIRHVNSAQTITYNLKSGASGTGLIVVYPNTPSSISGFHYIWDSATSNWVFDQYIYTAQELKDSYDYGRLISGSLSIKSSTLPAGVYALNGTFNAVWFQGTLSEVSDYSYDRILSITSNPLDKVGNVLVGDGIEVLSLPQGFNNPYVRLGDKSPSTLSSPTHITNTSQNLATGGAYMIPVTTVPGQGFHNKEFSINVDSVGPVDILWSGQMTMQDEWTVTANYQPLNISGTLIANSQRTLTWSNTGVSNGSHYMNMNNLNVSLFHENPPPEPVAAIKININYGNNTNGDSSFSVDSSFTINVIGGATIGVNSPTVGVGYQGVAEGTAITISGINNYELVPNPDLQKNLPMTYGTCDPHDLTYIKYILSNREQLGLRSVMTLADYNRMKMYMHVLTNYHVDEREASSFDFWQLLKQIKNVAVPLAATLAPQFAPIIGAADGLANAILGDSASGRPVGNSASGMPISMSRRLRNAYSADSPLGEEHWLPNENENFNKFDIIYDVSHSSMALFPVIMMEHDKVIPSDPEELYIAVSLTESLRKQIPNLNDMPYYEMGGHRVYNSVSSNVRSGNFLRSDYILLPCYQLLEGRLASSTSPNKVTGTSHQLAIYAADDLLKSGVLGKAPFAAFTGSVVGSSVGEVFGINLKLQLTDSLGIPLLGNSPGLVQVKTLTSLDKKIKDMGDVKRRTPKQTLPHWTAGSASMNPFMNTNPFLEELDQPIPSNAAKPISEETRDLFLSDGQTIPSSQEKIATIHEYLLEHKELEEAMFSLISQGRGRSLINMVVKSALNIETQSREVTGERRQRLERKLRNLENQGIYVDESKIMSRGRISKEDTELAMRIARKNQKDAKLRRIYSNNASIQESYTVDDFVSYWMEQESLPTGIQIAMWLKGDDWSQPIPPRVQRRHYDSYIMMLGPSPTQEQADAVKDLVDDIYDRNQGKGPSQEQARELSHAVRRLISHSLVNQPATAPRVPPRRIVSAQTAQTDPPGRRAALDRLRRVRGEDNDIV

What does the source list for 126-nt FLuc dsRNA?
Kd [1]: 116 nM; Kd [2]: 166 nM
